# B1: Matrix metalloproteinase-28 (Homo sapiens), Q9H239 (parent)
# chain: MVARVGLLLRALQLLLWGHLDAQPAERGGQELRKEAEAFLEKYGYLNEQVPKAPTSTRFSDAIRAFQWVSQLPVSGVLDRATLRQMTRPRCGVTDTNSYAAWAERISDLFARHRTKMRRKKRFAKQGNKWYKQHLSYRLVNWPEHLPEPAVRGAVRAAFQLWSNVSALEFWEAPATGPADIRLTFFQGDHNDGLGNAFDGPGGALAHAFLPRRGEAHFDQDERWSLSRRRGRNLFVVLAHEIGHTLGLTHSPAPRALMAPYYKRLGRDALLSWDDVLAVQSLYGKPLGGSVAVQLPGKLFTDFETWDSYSPQGRRPETQGPKYCHSSFDAITVDRQQQLYIFKGSHFWEVAADGNVSEPRPLQERWVGLPPNIEAAAVSLNDGDFYFFKGGRCWRFRGPKPVWGLPQLCRAGGLPRHPDAALFFPPLRRLILFKGARYYVLARGGLQVEPYYPRSLQDWGGIPEEVSGALPRPDGSIIFFRDDRYWRLDQAKLQATTSGRWATELPWMGCWHANSGSALF
# Variants of: B1
# Conditions: with furin_human FURIN
row,Variant,effect of a mutation on the interaction
1,MVARVGLLLRALQLLLWGHLDAQPAERGGQELRKEAEAFLEKYGYLNEQVPKAPTSTRFSDAIRAFQWVSQLPVSGVLDRATLRQMTRPRCGVTDTNSYAAWAERISDLFARHRTKMRRKKRFAKQGNKWYKQHLSYRLVNWPEHLPEPAVRGAVRAAFQLWSNVSALEFWEAPATGPADIRLTFFQGDHNDGLGNAFDGPGGALAHAFLPRRGEAHFDQDERWSLSRRRGRNLFVVLAHAIGHTLGLTHSPAPRALMAPYYKRLGRDALLSWDDVLAVQSLYGKPLGGSVAVQLPGKLFTDFETWDSYSPQGRRPETQGPKYCHSSFDAITVDRQQQLYIFKGSHFWEVAADGNVSEPRPLQERWVGLPPNIEAAAVSLNDGDFYFFKGGRCWRFRGPKPVWGLPQLCRAGGLPRHPDAALFFPPLRRLILFKGARYYVLARGGLQVEPYYPRSLQDWGGIPEEVSGALPRPDGSIIFFRDDRYWRLDQAKLQATTSGRWATELPWMGCWHANSGSALF [E241A],with no effect
2,MVARVGLLLRALQLLLWGHLDAQPAERGGQELRKEAEAFLEKYGAANEQVPKAPTSTRFSDAIRAFQWVSQLPVSGVLDRATLRQMTRPRCGVTDTNSYAAWAERISDLFARHRTKMRRKKRFAKQGNKWYKQHLSYRLVNWPEHLPEPAVRGAVRAAFQLWSNVSALEFWEAPATGPADIRLTFFQGDHNDGLGNAFDGPGGALAHAFLPRRGEAHFDQDERWSLSRRRGRNLFVVLAHEIGHTLGLTHSPAPRALMAPYYKRLGRDALLSWDDVLAVQSLYGKPLGGSVAVQLPGKLFTDFETWDSYSPQGRRPETQGPKYCHSSFDAITVDRQQQLYIFKGSHFWEVAADGNVSEPRPLQERWVGLPPNIEAAAVSLNDGDFYFFKGGRCWRFRGPKPVWGLPQLCRAGGLPRHPDAALFFPPLRRLILFKGARYYVLARGGLQVEPYYPRSLQDWGGIPEEVSGALPRPDGSIIFFRDDRYWRLDQAKLQATTSGRWATELPWMGCWHANSGSALF [Y45A;L46A],disrupting interaction strength

# Second part, the variant after the results:
row,effect of a mutation on the interaction,Variant
1,with no effect,MVARVGLLLRALQLLLWGHLDAQPAERGGQELRKEAEAFLEKYGYLNEQVPKAPTSTRFSDAIRAFQWVSQLPVSGVLDRATLRQMTRPRCGVTDTNSYAAWAERISDLFARHRTKMRAAKRFAKQGNKWYKQHLSYRLVNWPEHLPEPAVRGAVRAAFQLWSNVSALEFWEAPATGPADIRLTFFQGDHNDGLGNAFDGPGGALAHAFLPRRGEAHFDQDERWSLSRRRGRNLFVVLAHEIGHTLGLTHSPAPRALMAPYYKRLGRDALLSWDDVLAVQSLYGKPLGGSVAVQLPGKLFTDFETWDSYSPQGRRPETQGPKYCHSSFDAITVDRQQQLYIFKGSHFWEVAADGNVSEPRPLQERWVGLPPNIEAAAVSLNDGDFYFFKGGRCWRFRGPKPVWGLPQLCRAGGLPRHPDAALFFPPLRRLILFKGARYYVLARGGLQVEPYYPRSLQDWGGIPEEVSGALPRPDGSIIFFRDDRYWRLDQAKLQATTSGRWATELPWMGCWHANSGSALF [R119A;K120A]
2,with no effect,MVARVGLLLRALQLLLWGHLDAQPAERGGQELRKEAEAFLEKAAYLNEQVPKAPTSTRFSDAIRAFQWVSQLPVSGVLDRATLRQMTRPRCGVTDTNSYAAWAERISDLFARHRTKMRRKKRFAKQGNKWYKQHLSYRLVNWPEHLPEPAVRGAVRAAFQLWSNVSALEFWEAPATGPADIRLTFFQGDHNDGLGNAFDGPGGALAHAFLPRRGEAHFDQDERWSLSRRRGRNLFVVLAHEIGHTLGLTHSPAPRALMAPYYKRLGRDALLSWDDVLAVQSLYGKPLGGSVAVQLPGKLFTDFETWDSYSPQGRRPETQGPKYCHSSFDAITVDRQQQLYIFKGSHFWEVAADGNVSEPRPLQERWVGLPPNIEAAAVSLNDGDFYFFKGGRCWRFRGPKPVWGLPQLCRAGGLPRHPDAALFFPPLRRLILFKGARYYVLARGGLQVEPYYPRSLQDWGGIPEEVSGALPRPDGSIIFFRDDRYWRLDQAKLQATTSGRWATELPWMGCWHANSGSALF [Y43A;G44A]

# — IntAct's records for PubMed 21152186
